# Results reported in patent US20210206856A1 (PANDION OPERATIONS, published 2021).
# T1: human MAdCAM expressed on cells (human, UniProt Q13477 19-382)
# T1 construct: whole, on cells; also called MADCAM1
# T1 sequence (looked up): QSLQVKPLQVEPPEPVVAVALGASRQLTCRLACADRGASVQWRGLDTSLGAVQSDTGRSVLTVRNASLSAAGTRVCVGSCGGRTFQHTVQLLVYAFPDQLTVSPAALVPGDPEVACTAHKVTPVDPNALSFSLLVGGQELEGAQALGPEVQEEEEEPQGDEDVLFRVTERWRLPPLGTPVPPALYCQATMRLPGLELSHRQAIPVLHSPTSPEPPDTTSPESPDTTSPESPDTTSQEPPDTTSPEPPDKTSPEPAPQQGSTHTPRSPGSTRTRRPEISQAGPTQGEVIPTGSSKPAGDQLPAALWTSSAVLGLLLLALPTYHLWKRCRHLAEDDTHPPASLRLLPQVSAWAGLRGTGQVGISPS
# T2: mouse MAdCAM expressed on cells (mouse, UniProt Q61826 22-405)
# T2 construct: whole, on cells
# T2 sequence (looked up): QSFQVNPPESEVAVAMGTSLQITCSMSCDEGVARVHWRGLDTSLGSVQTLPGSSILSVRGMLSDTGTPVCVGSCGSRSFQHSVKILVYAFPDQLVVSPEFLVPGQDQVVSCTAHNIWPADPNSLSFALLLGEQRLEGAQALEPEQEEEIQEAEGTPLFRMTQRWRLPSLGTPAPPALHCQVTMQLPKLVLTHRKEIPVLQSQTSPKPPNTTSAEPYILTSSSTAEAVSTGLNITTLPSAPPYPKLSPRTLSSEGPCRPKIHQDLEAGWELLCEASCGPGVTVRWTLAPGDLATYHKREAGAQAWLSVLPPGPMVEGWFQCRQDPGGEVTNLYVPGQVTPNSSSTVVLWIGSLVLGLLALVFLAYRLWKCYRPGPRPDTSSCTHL
# Columns and labels:
# [1] = target: T1, human MAdCAM expressed on cells; assay: cell binding
# [2] = target: T2, mouse MAdCAM expressed on cells; assay: cell binding
binding result [1],binding result [2],Binder
binds,no binding,"MAdCAM Antibody Table 2 Clone 15 (antibody, human IgG1, V domains shown) VH: QVQLVQSGAEVKKPGASVKVSCKASGYTFTGYYMHWVRQAPGQGLEWMGWIGPNSGDTNYAQKFQGRVTMTRDTSTSTVYMELSSLRSEDTAVYYCARDLDHNWYFDLWGRGTLVTVSS VL: DIVMTQSPLSLPVTPGEPASISCRSSQSLLHSNGYNYLDWYLQKPGQSPQLLIYSSSNRAPGVPDRFSGSGSGTDFTLKISRVEAEDVGVYYCMQALHIPLTFGGGTKVEIK"
binds,binds,"MAdCAM Antibody Table 2 Clone 7 (antibody, human IgG1, V domains shown) VH: EVQLLESGGGLVQPGGSLRLSCAASGFTFSDYQMSWVRQAPGKGLEWVAIISHADGGFKDYADSVKGRFTISRDNSKNTLYLQMNSLRAEDTAVYYCAKPYSSGWSAVYYFDYWGQGTLVTVSS VL: DIQMTQSPSSLSASVGDRVTITCRASRGITNDLGWYQQKPGKAPKLLIYAASTLQSGVPSRFSGSGSGTDFTLTISSLQPEDFATYYCQQAYSFPWTFGQGTKVEIK"
binds,no binding,"MAdCAM Antibody Table 2 Clone 13 (antibody, human IgG1, V domains shown) VH: QVQLVQSGAEVKKPGASVKVSCKASGYTFTTYYMHWVRQAPGQGLEWMGGFDPEDGETIYAQKFQGRVTMTRDTSTSTVYMELSSLRSEDTAVYYCARHAVAGAVGAGYYYYGMDVWGQGTMVTVSS VL: DIQMTQSPSSLSASVGDRVTITCRASESISNWLAWYQQKPGKAPKLLIYAASTLQSGVPSRFSGSGSGTDFTLTISSLQPEDFATYYCQQSYSVPFTFGPGTKVDIK"
,no binding,"MAdCAM Antibody Table 2 Clone 9 (antibody, human IgG1, V domains shown) VH: QVQLVQSGAEVKKPGASVKVSCKASGYTFTSYYMHWVRQAPGQGLEWMGIINHSGGSTSYAQKFQGRVTMTRDTSTSTVYMELSSLRSEDTAVYYCARPYSGWYFAFDIWGQGTLVTVSS VL: not shown"
,no binding,"MAdCAM Antibody Table 2 Clone 35 (antibody, human IgG1, V domains shown) VH: QVQLVQSGAEVKKPGASVKVSCKASGYTFTGYYIHWVRQAPGQGLEWMGWMNPNSGNTGYAQKFQGRVTMTRDTSTSTVYMELSSLRSEDTAVYYCARDPGFLGYSSGGSSYDGWFDPWGQGTLVTVSS VL: DIQMTQSPSSLSASVGDRVTITCRASQSISSYLHWYQQKPGKAPKLLIYAASSLQSGVPSRFSGSGSGTDFTLTISSLQPEDFATYYCQQSYTAPYTFGQGTKLEIK"
,no binding,"MAdCAM Antibody Table 2 Clone 27 (antibody, V domains shown) VH: EVQLLESGGGLVQPGGSLRLSCAASGFTFSSYQMSWVRQAPGKGLEWVSYISSSSTYTNYADSVKGRFTISRDNSKNTLYLQMNSLRAEDTAVYYCARANSSSWYDWYFDLWGQGTLVTVSS VL: not shown"
binds,binds,"MAdCAM Antibody Table 2 Clone 10 (antibody, human IgG1, V domains shown) VH: EVQLLESGGGLVQPGGSLRLSCAASGFMFGDYAMHWVRQAPGKGLEWVSAISGSGGSTYYADSVKGRFTISRDNSKNTLYLQMNSLRAEDTAVYYCAKDLVVAGIWYFDLWGRGTLVTVSS VL: DIQMTQSPSSLSASVGDRVTITCRASQGISNNLNWYQQKPGKAPKLLIYDASSLESGVPSRFSGSGSGTDFTLTISSLQPEDFATYYCQQTHSFPSTFGQGTKLEIK"
binds,binds,"MAdCAM Antibody Table 2 Clone 1 (antibody, human IgG1, V domains shown) VH: EVQLLESGGGLVQPGGSLRLSCAASGFTFSSYGMHWVRQAPGKGLEWVAVISDDGSDKYYADSVKGRFTISRDNSKNTLYLQMNSLRAEDTAVYYCTTSKYYYYYGMDVWGQGTTVTVSS VL: DIQMTQSPSSLSASVGDRVTITCQASQDISKSLNWYQQKPGKAPKLLIYAASSLQSGVPSRFSGSGSGTDFTLTISSLQPEDFATYYCQQGYSTPLTFGGGTKVEIK"
binds,binds,"MAdCAM Antibody Table 2 Clone 8 (antibody, human IgG1, V domains shown) VH: QVQLVQSGAEVKKPGASVKVSCKASGYTFTGYHIHWVRQAPGQGLEWMGIINPSGGSTIYAQKFQGRVTMTRDTSTSTVYMELSSLRSEDTAVYYCAKDWSSWYLGPFDYWGQGTLVTVSS VL: DIQMTQSPSSLSASVGDRVTITCRASQNISSSLNWYQQKPGKAPKLLIYAASSLQSGVPSRFSGSGSGTDFTLTISSLQPEDFATYYCQQSYTTPYTFGQGTKVEIK"
binds,no binding,"MAdCAM Antibody Table 2 Clone 16 (antibody, human IgG1, V domains shown) VH: EVQLLESGGGLVQPGGSLRLSCAASGFTFDDYAMHWVRQAPGKGLEWVSYIDASGTTIYYADSVKGRFTISRDNSKNTLYLQMNSLRAEDTAVYYCAKDQAAAGYWYFDLWGRGTLVTVSS VL: DIQMTQSPSSLSASVGDRVTITCQASQDISNYLNWYQQKPGKAPKLLIYKASTLESGVPSRFSGSGSGTDFTLTISSLQPEDFATYYCQQSYSTPITFGQGTRLEIK"
binds,no binding,"MAdCAM Antibody Table 2 Clone 12 (antibody, human IgG1, V domains shown) VH: QVQLVQSGAEVKKPGASVKVSCKASGYTLTTWYMYWVRQAPGQGLEWMGWINPNRGATNYAQKFQGRVTMTRDTSTSTVYMELSSLRSEDTAVYYCAKGDLWGAMDVWGQGTLVTVSS VL: DIQMTQSPSSLSASVGDRVTITCRASDNIGSWLAWYQQKPGKAPKLLIYAASSLQSGVPSRFSGSGSGTDFTLTISSLQPEDFATYYCQQGYSTPPTFGQGTKVEIK"
binds,binds,"MAdCAM Antibody Table 2 Clone 11 (antibody, human IgG1, V domains shown) VH: EVQLLESGGGLVQPGGSLRLSCAASGFTFSDYYMNWVRQAPGKGLEWVSVIGESGGSTYYADSVKGRFTISRDNSKNTLYLQMNSLRAEDTAVYYCAADPVSRWPKHGGGDYWGQGTLVTVSS VL: DIQMTQSPSSLSASVGDRVTITCRASQGISSSLAWYQQKPGKAPKLLIYAASTLQSGVPSRFSGSGSGTDFTLTISSLQPEDFATYYCQQSYSTPWTFGQGTKVEIK"
,no binding,"MAdCAM Antibody Table 2 Clone 32 (antibody, human IgG1, V domains shown) VH: QVQLVQSGAEVKKPGASVKVSCKASGYTLTTWYMYWVRQAPGQGLEWMGWINPNRGATNYAQKFQGRVTMTRDTSTSTVYMELSSLRSEDTAVYYCAKGDLWGAMDVWGQGTLVTVSS VL: DIQMTQSPSSLSASVGDRVTITCRASDNIGSWLAWYQQKPGKAPKLLIYAASSLQSGVPSRFSGSGSGTDFTLTISSLQPEDFATYYCQQGYSTPPTFGQGTKVEIK"
binds,no binding,"MAdCAM Antibody Table 2 Clone 33 (antibody, human IgG1, V domains shown) VH: QVQLVQSGAEVKKPGASVKVSCKASGYTLTTWYMYWVRQAPGQGLEWMGWINPNRGATNYAQKFQGRVTMTRDTSTSTVYMELSSLRSEDTAVYYCAKGDLWGAMDVWGQGTTVTVSS VL: DIQMTQSPSSLSASVGDRVTITCRASDNIGSWLAWYQQKPGKAPKLLIYAASSLQSGVPSRFSGSGSGTDFTLTISSLQPEDFATYYCQQGYSTPPTFGQGTKVEIK"
binds,no binding,"MAdCAM Antibody Table 2 Clone 18 (antibody, human IgG1, V domains shown) VH: QVQLVQSGAEVKKPGSSVKVSCKASGYTFTNYYMHWVRQAPGQGLEWMGGIIPIVDRVKYAQKFQGRVTITADESTSTAYMELSSLRSEDTAVYYCAKGRYTVNYYYGMDVWGQGTTVTVSS VL: DIQMTQSPSSLSASVGDRVTITCQANQDISNYLNWYQQKPGKAPKLLIYRASKLEAGVPSRFSGSGSGTDFTLTISSLQPEDFATYYCQQSSEIPYSFGQGTKLEIK"
